Among the data in the Immune Epitope Database (IEDB) are Kd values, retold here.

Test [1] addresses HLA-A*02:01. The experiment in a line: IEDB peptide-MHC binding, purified MHC/competitive/fluorescence; filed as Kd, often an IC50 or EC50 that approximates it; ≥ and ≤ were set here for values at or beyond the usual limits of such assays.
For test [2], the target named is HLA-A*02:03. The description is as above.
Test [3] addresses HLA-A*02:12. Described as above.
The target in test [4] is HLA-A*02:16. Described as above.
The target of test [5] is HLA-A*02:19. The description is as above.
Test [6] deals with HLA-A*03:01. Described as above.
For test [7], the target named is HLA-A*26:01. Described as above.
In test [8] the target is HLA-A*29:02. The test is described as above.
Test [9] has as its target HLA-A*68:02. The test is described as above.
Test [10] has as its target HLA-A*69:01. The description is as above.
In test [11] the target is HLA-B*18:01. Described as above.
For test [12], the target named is HLA-B*27:03. Described as above.
The target of test [13] is HLA-B*39:01. The test is described as above.
The target of test [14] is HLA-B*51:01. The description is as above.
Test [15] deals with HLA-B*57:01. The test is described as above.
Test [16] concerns the target HLA-A*01:01. The experiment in a line: IEDB peptide-MHC binding, purified MHC/direct/fluorescence; filed as Kd, often an IC50 or EC50 that approximates it; ≥ and ≤ were set here for values at or beyond the usual limits of such assays. To be noted: source organism: Escherichia coli O157:H7.
Test [17] concerns the target HLA-A*02:01. Described as above.
The target of test [18] is HLA-A*03:01. The test is described as above.
Test [19] has as its target HLA-A*11:01. The test is described as above.
In test [20] the target is HLA-A*24:03. The description is as above. To be noted: source organism: Salmonella enterica subsp. enterica serovar Typhimurium.
Test [21] has as its target HLA-A*26:01. Described as above. To be noted: source organism: Escherichia coli O157:H7.
In test [22] the target is HLA-A*30:01. The description is as above.
The target in test [23] is HLA-A*31:01. The description is as above. To be noted: source organism: Salmonella enterica subsp. enterica serovar Typhimurium.
Test [24] addresses HLA-A*69:01. The description is as above. To be noted: source organism: Escherichia coli O157:H7.
Test [25] deals with HLA-B*07:02. Described as above.
Test [26] concerns the target HLA-B*08:01. The description is as above. The note with it: source organism: Escherichia coli O157:H7.
For test [27], the target named is HLA-B*15:01. The description is as above.
The target in test [28] is HLA-B*27:05. Described as above. The note with it: source organism: Escherichia coli O157:H7.
Test [29] deals with HLA-B*40:01. The description is as above. The note with it: source organism: Escherichia coli O157:H7.
Test [30] addresses HLA-B*44:02. The test is described as above. To be noted: source organism: Escherichia coli O157:H7.
For test [31], the target named is HLA-B*58:01. The test is described as above. To be noted: source organism: Escherichia coli O157:H7.
In test [32] the target is HLA-B*15:02. The description is as above. The note with it: source organism: Escherichia coli O157:H7.
The target of test [33] is HLA-B*46:01. The test is described as above. The note with it: source organism: Escherichia coli O157:H7.
Test [34] addresses HLA-B*35:01. The test is described as above. To be noted: source organism: Escherichia coli O157:H7.
Test [35] deals with HLA-B*46:01. The experiment in a line: IEDB peptide-MHC binding, purified MHC/competitive/fluorescence; filed as Kd, often an IC50 or EC50 that approximates it; ≥ and ≤ were set here for values at or beyond the usual limits of such assays.
For test [36], the target named is HLA-B*15:01. The test is described as above. To be noted: source organism: Francisella tularensis subsp. tularensis FSC198.
The target in test [37] is HLA-A*24:03. The description is as above. The note with it: source organism: Rickettsia sibirica 246.
Where [38] appears, read: source organism: Escherichia coli B171.
Where [39] appears, read: source organism: Salmonella enterica subsp. enterica serovar Typhimurium.
[40] abbreviates: source organism: Escherichia coli O157:H7.
The mark [41] stands for this setting: source organism: Entamoeba histolytica HM-1:IMSS.
The mark [42] stands for this setting: source organism: Giardia lamblia ATCC 50803.
[43] abbreviates: source organism: Francisella tularensis subsp. tularensis FSC198.
[44] abbreviates: source organism: Rickettsia sibirica 246.

What is called Kd is the concentration at which binding is half-saturated. A low value points to a tighter complex. With KAIIDTAQF, the Kd in test [1] (setting [38]), in test [2] (setting [38]), in test [3] (setting [38]), in [4] (setting [38]), in test [5] (setting [38]) and in test [6] (setting [38]) was at least 20 µM throughout. The Kd in test [7] (setting [38]), in test [8] (setting [38]), in [9] (setting [38]), in test [10] (setting [38]), in [11] (setting [38]) and in test [12] (setting [38]) was at least 20 µM throughout. Also, the figures for the equilibrium dissociation constant (Kd) in test [13] (setting [38]), in test [14] (setting [38]) and in test [15] (setting [38]) were at least 20 µM, at least 20 µM and 209 nM, respectively.
For the sequence RVNKGTGVK, the dissociation constant (Kd) in test [16] is at least 20 µM; in test [17] (setting [39]) it was 1340 nM; in test [18] (setting [39]), 359 nM; in test [19] (setting [39]), 60.6 nM; in test [20], 437 nM; in [21], at least 20 µM. Moreover, the Kd in [22] (setting [39]) was 1.81 nM; in test [23], 103 nM; in test [24] it was at least 20 µM; in [25] (setting [39]), 12.6 µM; in test [26], at least 20 µM; in test [27] (setting [39]), 4450 nM. The Kd in test [28] is at least 20000 nM; in test [29] it was at least 20 µM; in test [30], at least 20 µM; in test [31] it was at least 20 µM.
As for RMFEKSTHH, the values for the dissociation constant Kd in test [27] (setting [40]), in [32] and in test [33] were 75.1 nM, 16 µM and at least 20 µM, respectively.
For the sequence LQLTAVFAY, the dissociation constant Kd in [16] was at least 20 µM; in test [17] (setting [40]) it was at least 20000 nM; in test [18] (setting [40]), at least 20000 nM; in test [19] (setting [40]) it was 1980 nM; in test [21] it was at least 20 µM; in test [24] it was at least 20 µM. Besides, the Kd is at least 20 µM in [25] (setting [40]); at least 20 µM in [26]; 79.6 nM in test [27] (setting [40]); 1.01 µM in [32]; 90.7 nM in [28]; 10.2 nM in [34]. Further, the Kd in test [29], in test [30], in test [33] and in test [31] was at least 20 µM throughout.
Consider FHFNPLPNV, for which the values for the Kd in test [1] (setting [41]) and in [4] (setting [41]) were 0.115 µM and 0.129 µM, respectively.
In the case of TNPAITSRV, the Kd in test [9] (source organism: Vibrio cholerae 2740-80) worked out at 0.0217 µM.
On to MLMFITSSH, for which the Kd in test [18] (setting [42]) is 167 nM; in [19] (setting [42]), 144 nM; in test [22] (setting [42]), at least 20000 nM; in test [35] (setting [42]), 273 nM.
For RSFPEWDYI, the Kd in test [2] (setting [43]), in test [3] (setting [43]), in [5] (setting [43]), in test [6] (setting [43]), in [7] (setting [43]) and in test [8] (setting [43]) was at least 20 µM each time. In addition, the Kd in [36] was at least 20 µM; in test [11] (setting [43]), at least 20 µM; in [12] (setting [43]), at least 20 µM; in test [13] (setting [43]) it was at least 20 µM; in test [35] (setting [43]), at least 20000 nM; in [14] (setting [43]), at least 20 µM. The sequence further returned a dissociation constant Kd in test [15] (setting [43]) of 97.9 nM.
On to AMYDPQTYY, for which the Kd is at least 20 µM in test [1] (setting [44]); at least 20 µM in [3] (setting [44]); at least 20 µM in [4] (setting [44]); at least 20 µM in test [5] (setting [44]); 0.0142 µM in test [6] (setting [44]); at least 20 µM in test [37]. Also, the dissociation constant (Kd) in test [7] (setting [44]) is at least 20 µM; in test [8] (setting [44]) it was 0.0002 µM; in test [9] (setting [44]), at least 20 µM; in test [10] (setting [44]) it was at least 20 µM; in test [11] (setting [44]) it was at least 20 µM; in test [12] (setting [44]), at least 20 µM. Also, the values for the Kd in [13] (setting [44]), in [14] (setting [44]) and in test [15] (setting [44]) were at least 20 µM, at least 20 µM and at least 20000 nM, respectively.
